Paper PMC9841417 (Nucleic Acids Research, 2023)
Residue numbers refer to the chain shown, from its start. In names and notes the source's numbering stands.

B1: Lhr-CTD (aa 863-1507) R915A-T1100A-D1366A (domain or fragment, Mycobacterium smegmatis, UniProt A0QT91 863-1507, looked up)
chain: SPLAERRAAALALDTVLLSELLGRVELRELLDPAVVASTSAQLQHLTPERAAADAEGVADLLRLLGPLTEADIAQRCTADNIGAWLDGLHAAKRALPVTYAGQTWWAAVEDIGLLRDGIGVPVPVGVPAAFTESASDPLGDLIGRYARTRGPFTTEQTAARFGLGVRVASDVLSRMAVDGRLIRGEFAADLSGEQWCDAQVLKILRRRSLAALRAQVEPVSTDAYARFLPSWQHVGSANTTGIDGLATVIEQLAGVPIPASAVESLVFPQRVRDYQPAMLDELLASGEVMWSGAGQIGNGDGWVAFHLADTAPLTLTHGAEIEFTDTHRVILETLGHGGAYFFRQLTDGTVEGTAGQELKQALWELIWAGWVTGDTFAPVRAVLSGPRRSGAPAHRQRQRPPRLSRYSVAHAQTRGTDPTVSGRWSALPAAEPDSTVRAHFQAELLLGRHGVLTKGAVGAEGVPGGFATLYKVLSTFEDAGRCQRGYFVESLGGAQFAVASTVARLRSYLDNVDPERPEYHAVVLAATDPANPYGAALGWPTDSEAHRPGRKAGALVALVDGRLVWFLERGGRSLLSFGADADAQRAAAGALTDLVSAGRIPSLLVERINGVAVLDPDVDAERAVVQDALLGAGLSRTPRGLRLR
B2: Lhr-CTD (aa 863-1507) H1199A-R1206A-R1286A (domain or fragment, Mycobacterium smegmatis, UniProt A0QT91 863-1507, looked up)
chain: B1 chain with A53R, A238T, H337A, R344A, R424A, A504D
B3: Full-length Lhr H1199A-R1206A-R1286A (natural protein, Mycobacterium smegmatis, UniProt A0QT91 1-1507, looked up)
chain: MTTNGADPLGRFSALTREWFTTAFAAPTPAQADAWSAISEGNNTLVIAPTGSGKTLAAFLWAIDRLADPAREPSQGTQVLYVSPLKALAVDVERNLRTPLTGITRVAERHGLPAPSITVGVRSGDTPPNQRRAMIANPPDVLITTPESLFLMLTSAARETLTSVRTVIVDEVHAVAATKRGAHLALSLERLDQLLDTPAQRIGLSATVRPPEEVARFLSGQAPTTIVCPPAAKTFDLSVQVPVPDMANLDNNSIWPDVEERIVDLVEAHNSSIVFANSRRLAERLTSRLNEIHAERSGIELPAGPNPEVGGGAPAHLMGSGQANGAPPLLARAHHGSVSKEQRAQVEDDLKSGRLRAVVATSSLELGIDMGAVDLVIQVEAPPSVASGLQRVGRAGHQVGEISQGVLFPKHRTDLIGCAVTVQRMQTGDIETLRVPANPLDVLAQHTVAVAALEPVDADAWFDAVRRSAPFATLPRSAFEATLDLLSGKYPSTEFAELRPRLVYDRDTGTLTARPGAQRLAVTSGGAIPDRGMFTVYLASETEKPSRVGELDEEMVYESRPGDVISLGATSWRITEITHDRVLVIPAPGQPARLPFWRGDSVGRPAELGAAVGAFTGELASLDRKAFDKRCQKMGFAGYATDNLHQLLREQREATGVVPSDTTFVVERFRDELGDWRVILHSPYGLRVHGPLALAVGRRLRERYGIDEKPTASDDGIIVRLPDSGDTPPGADLFVFDADEIEPIVTAEVGGSALFASRFRECAARALLLPRRHPGKRSPLWHQRQRAAQLLDIARKYPDFPIVLEAVRECLQDVYDVPALIELMHKIAQRRLRIVEVETATPSPFAASLLFGYVGAFMYEGDSPLAERRAAALALDTVLLSELLGRVELRELLDPAVVASTSAQLQHLTPERAARDAEGVADLLRLLGPLTEADIAQRCTADNIGAWLDGLHAAKRALPVTYAGQTWWAAVEDIGLLRDGIGVPVPVGVPAAFTESASDPLGDLIGRYARTRGPFTTEQTAARFGLGVRVASDVLSRMAVDGRLIRGEFAADLSGEQWCDAQVLKILRRRSLAALRAQVEPVSTDAYARFLPSWQHVGSTNTTGIDGLATVIEQLAGVPIPASAVESLVFPQRVRDYQPAMLDELLASGEVMWSGAGQIGNGDGWVAFHLADTAPLTLTHGAEIEFTDTHRVILETLGAGGAYFFAQLTDGTVEGTAGQELKQALWELIWAGWVTGDTFAPVRAVLSGPRRSGAPAHRQRQRPPRLSRYSVAHAQTRGTDPTVSGAWSALPAAEPDSTVRAHFQAELLLGRHGVLTKGAVGAEGVPGGFATLYKVLSTFEDAGRCQRGYFVESLGGAQFAVASTVDRLRSYLDNVDPERPEYHAVVLAATDPANPYGAALGWPTDSEAHRPGRKAGALVALVDGRLVWFLERGGRSLLSFGADADAQRAAAGALTDLVSAGRIPSLLVERINGVAVLDPDVDAERAVVQDALLGAGLSRTPRGLRLR

Biological target: the molecule itself
Test: SEC

| Protein | stoichiometry N |
| --- | --- |
| B1 | 4 |
| B2 | 2 |
| B3 | 2 |
